Test results published in patent publication US11795460B2, “Compositions and methods for TTR gene editing and treating ATTR amyloidosis” (Intellia Therapeutics, Inc., priority 2017, dated 2023).
Strand notation (5' to 3'): a small letter for the sugar, then the base; units joined by * are phosphorothioate-linked, units joined directly phosphodiester-linked; [ ] holds rarer units or linkages, { } end groups; capitals alone tell only the bases. m = 2'-O-methyl; r = 2'-OH (RNA)

Legend:
[1] = tested on: human TTR sequence; assay: Liver editing in humanized TTR mice dosed with LNP formulations (Table 26); type: in vivo, mouse; conditions: for Liver editing: LNP Formulation Numbers 1-5, Cas9 mRNA SEQ ID NO:2, 2 mg/kg total RNA, mean values, FIG. 9; for % Editing: Table 26, liver editing, LNP Formulation Numbers 6-16, 1 mg/kg (total RNA content)
Description: Unless otherwise noted, CD-1 female mice, ranging from 6-10 weeks of age were used in each study. Animals were weighed and grouped according to body weight for preparing dosing solutions based on group average weight. LNPs were dosed via the lateral tail vein in a volume of 0.2 mL per animal (approximately 10 mL per kilogram body weight). […] Body weight was measured at twenty-four hours post-administration, and animals were euthanized at various time points by exsanguination via cardiac puncture under isoflourane anesthesia. Blood was collected into serum separator tubes or into tubes containing buffered sodium citrate for plasma as described herein. For studies involving in vivo editing, liver tissue was collected from the median lobe or from three independent lobes (e.g., the right median, left median, and left lateral lobes) from each animal for DNA extraction and analysis.
To quantitatively determine the efficiency of editing at the target location in the genome, sequencing was utilized to identify the presence of insertions and deletions introduced by gene editing.
Primers were designed around the target site within the gene of interest (e.g. TTR), and the genomic area of interest was amplified.
Additional PCR was performed per the manufacturer's protocols (Illumina) to add chemistry for sequencing. The amplicons were sequenced on an Illumina MiSeq instrument. The reads were aligned to a reference genome (e.g., the human reference genome (hg38), the cynomologus reference genome (mf5), the rat reference genome (rn6), or the mouse reference genome (mm10)) after eliminating those having low quality scores. The resulting files containing the reads were mapped to the reference genome (BAM files), where reads that overlapped the target region of interest were selected and the number of wild type reads versus the number of reads which contain an insertion, substitution, or deletion was calculated.
The editing percentage (e.g., the “editing efficiency” or “percent editing” or “indel frequency”) is defined as the total number of sequence reads with insertions/deletions (“indels”) or substitutions over the total number of sequence reads, including wild type.
Mice humanized with respect to the TTR gene were dosed with LNP formulations 701-704 containing the guides indicated in Table 25 (5 mice per formulation). These humanized TTR mice were engineered such that a region of the endogenous murine TTR locus was deleted and replaced with an orthologous human TTR sequence so that the locus encodes a human TTR protein. For comparison, 6 mice with murine TTR were dosed with LNP700, containing a guide (G000282) targeting murine TTR. […]

[2] = tested on: potential off-target sites; assay: Targeted amplicon sequencing of potential off-target sites in PHH treated with LNPs (Tables 31-33); type: cell-based, human; conditions: for Indel Frequency (using LNP with 100 ng Cas9 mRNA and 14.68 nM gRNA) / Indel rate at the on-target site / Indels at in silico predicted off-target sites / Number of potential off-target sites identified by the oligo insertion assay at which indels were detected: PHH treated with LNP; for Indel Frequency (using LNP with 100 ng Cas9 mRNA and 14.68 nM gRNA): NGS targeted amplicon sequencing; for Indel rate at the on-target site / Indels at in silico predicted off-target sites / Number of potential off-target sites identified by the oligo insertion assay at which indels were detected: 100 ng Cas9 mRNA (SEQ ID NO:1), near-saturating dose; for Indel rate at the on-target site: gRNA 14.68 nM; for Number of potential off-target sites identified by the oligo insertion assay at which indels were detected: indels at low levels; for On-target indel rate at highest concentration without detected off-target sites / Highest gRNA concentration at which the potential off-target sites were no longer detected: PHH; for On-target indel rate at highest concentration without detected off-target sites: G000480 at 0.57 nM, G000486 at 15.51 nM gRNA; for Highest gRNA concentration at which the potential off-target sites were no longer detected: LNP dose response, 11 points 0.001-46.55 nM gRNA
Description: The HEK293_Cas9 cells used in Example 5 for detecting potential off-targets constitutively overexpress Cas9, leading to a higher number of potential off-target “hits” as compared to a transient delivery paradigm in various cell types. […] Accordingly, potential off-target sites identified by an oligo insertion method as used in Example 5 may be validated using targeted sequencing of the identified potential off-target sites.
In one approach, primary hepatocytes are treated with LNPs comprising Cas9 mRNA and a sgRNA of interest (e.g., a sgRNA having potential off-target sites for evaluation). The primary hepatocytes are then lysed and primers flanking the potential off-target site(s) are used to generate an amplicon for NGS analysis. Identification of indels at a certain level may validate potential off-target site, whereas the lack of indels found at the potential off-target site may indicate a false positive in the HEK293_Cas9 cell assay.
Following the identification of potential off-target sites in […] via the oligo insertion assay, certain potential sites were further evaluated by targeted amplicon sequencing, e.g., as described in Example 6. In addition to the potential off-target sites identified by the oligo insertion strategy, additional potential off-target sites identified by in silico prediction were included in the analysis.
To this end, PHH were treated with LNPs comprising 100 ng of Cas9 mRNA (SEQ ID NO:1) and the gRNA of interest at 14.68 nM (in a 1:1 ratio by weight), as described in Example 4. The LNPs were prepared using the cross-flow procedure described above and purified and concentrated using PD-10 columns and Amicon centrifugal filter units, respectively. The LNPs were formulated with an N:P ratio of 6.0 and contained Lipid A, Cholesterol, DSPC, and PEG2k-DMG in a 50:38:9:2 molar ratio, respectively. Following LNP treatment, isolated genomic DNA was analyzed by NGS (e.g., as described in Examples 1 and 6) to determine whether indels could be detected at the potential off-target site, which would be indicative of a Cas9-mediated cleavage event. Tables 31 and 32 show the potential off-target sites that were evaluated for the gRNAs G000480 and G000486, respectively.
As shown in FIGS. 21A-B and 22A-B and Table 33 below, indels were detected at low levels for only two of the potential off-target sites identified by the oligo insertion assay for G000480, and only one for G000486. […] Further, indels were only detected at these sites using a near-saturating dose of LNP, as the indel rates observed at the on-target sites for G000480 and G000486 were ˜97% and ˜91%, respectively (See Table 33).
A dose response assay was then performed in order to determine the highest dose of LNP in which no off-targets were detected. PHH were treated with LNPs comprising either G000480 or G000486 as described in Example 4. The doses ranged across 11 points with respect to gRNA concentration (0.001 nM, 0.002 nM, 0.007 nM, 0.02 nM, 0.06 nM, 0.19 nM, 0.57 nM, 1.72 nM, 5.17 nM, 15.51 nM, and 46.55 nM).

[3] = Off-Target site INS-OT.4 (of the respective guide)

B1: G000499: TTR sgRNA modified sequence, Human, SEQ ID No. 106; guide sequence of CR005303 (nucleic acid)
guide: mU*mG*mA*rArUrCrCrArArGrUrGrUrCrCrUrCrUrGrArGrUrUrUrUrArGrAmGmCmUmAmGmAmAmAmUmAmGmCrArArGrUrUrArArArArUrArArGrGrCrUrArGrUrCrCrGrUrUrArUrCrAmAmCmUmUmGmAmAmAmAmAmGmUmGmGmCmAmCmCmGmAmGmUmCmGmGmUmGmCmU*mU*mU*mU
Liver editing [1]: ~60%
% Editing [1]: 65.66%

B2: G000481: TTR sgRNA modified sequence, Human, SEQ ID No. 88; guide sequence of CR003345 (nucleic acid)
guide: mU*mC*mU*rArGrArArCrUrUrUrGrArCrCrArUrCrArGrGrUrUrUrUrArGrAmGmCmUmAmGmAmAmAmUmAmGmCrArArGrUrUrArArArArUrArArGrGrCrUrArGrUrCrCrGrUrUrArUrCrAmAmCmUmUmGmAmAmAmAmAmGmUmGmGmCmAmCmCmGmAmGmUmCmGmGmUmGmCmU*mU*mU*mU
% Editing [1]: 61.28%

B3: G000486: TTR sgRNA modified sequence, Human, SEQ ID No. 93; guide sequence of CR003339 (nucleic acid)
guide: mA*mC*mA*rCrArArArUrArCrCrArGrUrCrCrArGrCrArGrUrUrUrUrArGrAmGmCmUmAmGmAmAmAmUmAmGmCrArArGrUrUrArArArArUrArArGrGrCrUrArGrUrCrCrGrUrUrArUrCrAmAmCmUmUmGmAmAmAmAmAmGmUmGmGmCmAmCmCmGmAmGmUmCmGmGmUmGmCmU*mU*mU*mU
Indel Frequency (using LNP with 100 ng Cas9 mRNA and 14.68 nM gRNA) [2, 3]: 0.47%
Indel Frequency (using LNP with 100 ng Cas9 mRNA and 14.68 nM gRNA) ([2]; On-Target site): 91.33%
Indel rate at the on-target site [2]: ~91%
Indels at in silico predicted off-target sites [2]: No indels were detected
Number of potential off-target sites identified by the oligo insertion assay at which indels were detected [2]: one
On-target indel rate at highest concentration without detected off-target sites [2]: 89.50%
Highest gRNA concentration at which the potential off-target sites were no longer detected [2]: 15.51 nM

B4: G000480: TTR sgRNA modified sequence, Human, SEQ ID No. 87; guide sequence of CR003353 (nucleic acid)
guide: mA*mA*mA*rGrGrCrUrGrCrUrGrArUrGrArCrArCrCrUrGrUrUrUrUrArGrAmGmCmUmAmGmAmAmAmUmAmGmCrArArGrUrUrArArArArUrArArGrGrCrUrArGrUrCrCrGrUrUrArUrCrAmAmCmUmUmGmAmAmAmAmAmGmUmGmGmCmAmCmCmGmAmGmUmCmGmGmUmGmCmU*mU*mU*mU
Indel Frequency (using LNP with 100 ng Cas9 mRNA and 14.68 nM gRNA) ([2]; Off-Target site INS-OT.2): 1.43%
Indel Frequency (using LNP with 100 ng Cas9 mRNA and 14.68 nM gRNA) [2, 3]: 0.97%
Indel Frequency (using LNP with 100 ng Cas9 mRNA and 14.68 nM gRNA) ([2]; On-Target site): 97.33%
Indel rate at the on-target site [2]: ~97%
Indels at in silico predicted off-target sites [2]: No indels were detected
Number of potential off-target sites identified by the oligo insertion assay at which indels were detected [2]: two
On-target indel rate at highest concentration without detected off-target sites [2]: 84.60%
Highest gRNA concentration at which the potential off-target sites were no longer detected [2]: 0.57 nM

B5: G000494: TTR sgRNA modified sequence, Human, SEQ ID No. 101; guide sequence of CR003360 (nucleic acid)
guide: mG*mU*mG*rArGrUrCrUrGrGrArGrArGrCrUrGrCrArUrGrUrUrUrUrArGrAmGmCmUmAmGmAmAmAmUmAmGmCrArArGrUrUrArArArArUrArArGrGrCrUrArGrUrCrCrGrUrUrArUrCrAmAmCmUmUmGmAmAmAmAmAmGmUmGmGmCmAmCmCmGmAmGmUmCmGmGmUmGmCmU*mU*mU*mU
Liver editing [1]: ~60%
